The record followed here is patent US20110142849A1.

In this experiment the target is recombinant human Pcsk9 (aa 31-692) with C-terminal his6 tag (human) (UniProt Q8NBP7). In words: TR-FRET, disruption of hLDL-R-Eu and hPcsk9-AF. In general terms: In TR-FRET formats the signal depends on donor and acceptor labels being close together.
recombinant human Pcsk9 (aa 31-692) with C-terminal his6 tag (human), sequence (Q8NBP7 other isoform, or with tags, fused parts or gaps limits assumed, form in doubt): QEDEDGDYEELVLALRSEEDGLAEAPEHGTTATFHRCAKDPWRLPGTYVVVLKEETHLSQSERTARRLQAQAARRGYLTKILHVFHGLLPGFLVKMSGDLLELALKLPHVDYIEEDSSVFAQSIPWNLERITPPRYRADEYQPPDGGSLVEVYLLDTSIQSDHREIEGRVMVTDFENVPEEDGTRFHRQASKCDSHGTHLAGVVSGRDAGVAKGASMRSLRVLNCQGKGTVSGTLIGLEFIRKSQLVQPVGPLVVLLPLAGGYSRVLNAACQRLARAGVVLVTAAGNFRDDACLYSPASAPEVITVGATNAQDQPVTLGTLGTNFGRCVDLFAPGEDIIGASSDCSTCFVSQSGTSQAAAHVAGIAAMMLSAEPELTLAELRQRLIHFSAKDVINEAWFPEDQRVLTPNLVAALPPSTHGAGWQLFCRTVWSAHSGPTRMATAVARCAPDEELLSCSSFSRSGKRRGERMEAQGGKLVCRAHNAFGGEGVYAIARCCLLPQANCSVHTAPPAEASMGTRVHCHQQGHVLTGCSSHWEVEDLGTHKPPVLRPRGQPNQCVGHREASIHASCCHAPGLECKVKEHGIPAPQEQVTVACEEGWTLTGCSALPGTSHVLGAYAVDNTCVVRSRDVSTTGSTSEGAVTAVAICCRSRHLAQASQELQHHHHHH

Turning to EGF-A peptide, the IC50 – broadly, the midpoint of a concentration-inhibition curve – was 2.5 µM.
